{"source": "patent US20250346679A1", "about": "(INVOX PHARMA, published 2025)", "key": {"[1]": {"biological_target": "T1, human PD-L1, cell-surface (human, UniProt Q9NZQ7 19-290)", "T1 sequence (Q9NZQ7 19-290)": "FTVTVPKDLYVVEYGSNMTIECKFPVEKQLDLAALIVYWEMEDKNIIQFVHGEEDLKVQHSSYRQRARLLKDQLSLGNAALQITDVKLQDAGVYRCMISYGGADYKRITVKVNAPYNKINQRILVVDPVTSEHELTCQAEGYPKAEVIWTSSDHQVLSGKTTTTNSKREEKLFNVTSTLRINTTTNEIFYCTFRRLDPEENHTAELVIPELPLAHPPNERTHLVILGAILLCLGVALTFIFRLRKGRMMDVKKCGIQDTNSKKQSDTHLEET", "assay": "cell-based or functional assay"}, "[2]": {"biological_target": "T2, cynomolgus CD137, cell-surface (cynomolgus, UniProt Q07011 24-255 (human entry))", "T2 chain": "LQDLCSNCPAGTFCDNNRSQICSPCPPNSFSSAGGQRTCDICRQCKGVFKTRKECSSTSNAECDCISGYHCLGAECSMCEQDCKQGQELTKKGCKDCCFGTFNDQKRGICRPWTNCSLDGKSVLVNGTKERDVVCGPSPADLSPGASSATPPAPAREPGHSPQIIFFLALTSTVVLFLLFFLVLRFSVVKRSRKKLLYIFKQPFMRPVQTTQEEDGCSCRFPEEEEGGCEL", "assay": "cell-based or functional assay"}, "[3]": {"biological_target": "T1, human PD-L1, cell-surface", "assay": "flow cytometry on HEK.hPD-L1", "description": "Non-specific binding was also assessed by testing binding to HEK293 parental cells lacking human PD-L1 (Flp-In T-Rex 293 cell line, Life Technologies, R780-07).\nHEK293, HEK.hPD-L1 and HEK.cPD-L1 suspensions were prepared in FACS buffer (DPBS (Gibco, 14190-094) containing 0.5% BSA (Sigma, A7906)) and seeded at 1×10⁵ cell/well in 100 μl in round bottomed 96-well plates (VWR, 734-1797). […] The washed cells were resuspended in the diluted antibody mixture, incubated at 4° C. for 30 minutes, and then washed once in FACS buffer. […] Dead cells were excluded and the fluorescence in the APC channel (638 nm 660/20) was measured. The geometric mean fluorescence intensity (GMFI) values were plotted vs the log concentration of antibody and the resulting curves were fitted using the log (agonist) vs response equation in GraphPad Prism."}, "[4]": {"biological_target": "T3, biotinylated hPD-L1-Avi-His (Acro Biosystems, PD1-H82E5) (human, UniProt Q9NZQ7 19-238, biotinylated)", "T3 construct": "bought; also called Human PD-L1-His; not shown: Avi and His tags of the bought product", "T3 sequence (Q9NZQ7 19-238)": "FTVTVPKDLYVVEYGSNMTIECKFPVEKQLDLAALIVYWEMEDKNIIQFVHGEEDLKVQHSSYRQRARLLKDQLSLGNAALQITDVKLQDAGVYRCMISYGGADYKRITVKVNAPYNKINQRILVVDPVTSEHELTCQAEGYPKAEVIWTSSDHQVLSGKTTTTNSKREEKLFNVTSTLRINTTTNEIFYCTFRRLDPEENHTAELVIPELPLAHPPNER", "assay": "SPR, mAb^2 captured on Protein A chip, antigen in flow", "in_short": "(§1)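 mAb² captured on Protein A chip to ~110 RU in HBS-EP; PD-L1 antigens injected at 81 nM to 0.037 nM (3-fold dilutions) for 4 min at 75 μl/min, 10 min dissociation. Reference-subtracted data fitted to 1:1 binding with mass transfer, RI 0.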"}, "[5]": {"biological_target": "T4, cPD-L1-His (Acro Biosystems, PD1-C52H4) (cynomolgus, UniProt Q9NZQ7 19-238 (human entry))", "T4 construct": "bought; also called Cyno PD-L1-His; Cynomolgus PD-L1-His; not shown: His tag of the bought product", "T4 sequence (Q9NZQ7 other isoform, or with tags, fused parts or gaps)": "as the sequence (Q9NZQ7 19-238) above, with A33T, A34S, S62N, R68Q, Q82R, F173L, T185A, T192I, H215L counted along it", "assay": "SPR, mAb^2 captured on Protein A chip, antigen in flow", "in_short": "as §1"}, "[6]": {"biological_target": "T5, hCD137-mFc-Avi (human; mouse, UniProt Q07011 24-186, biotin on the Avi sequence where the biotinylated form was used)", "T5 construct": "also called human CD137-mFc-Avi; dimeric human CD137; not shown: mouse IgG2a Fc domain (mIgG2a Fc)", "T5 sequence (Q07011 24-186)": "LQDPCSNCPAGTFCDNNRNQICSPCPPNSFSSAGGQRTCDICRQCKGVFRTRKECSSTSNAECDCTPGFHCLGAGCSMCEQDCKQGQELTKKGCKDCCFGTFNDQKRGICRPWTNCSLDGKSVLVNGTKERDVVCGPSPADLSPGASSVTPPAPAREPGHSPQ", "assay": "SPR, mAb^2 captured by anti-human Fab, antigen in flow"}, "[7]": {"biological_target": "T6, cCD137-mFc-Avi (cynomolgus; mouse)", "T6 construct": "also called cynomolgus CD137-mFc-Avi; Cyno CD137-mFc-Avi; not shown: mouse IgG2a Fc domain (mIgG2a Fc)", "T6 chain": "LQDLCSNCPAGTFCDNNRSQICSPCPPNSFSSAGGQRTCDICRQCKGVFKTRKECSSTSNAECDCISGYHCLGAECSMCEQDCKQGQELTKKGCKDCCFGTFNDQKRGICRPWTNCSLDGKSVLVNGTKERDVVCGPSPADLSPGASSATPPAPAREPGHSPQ", "assay": "SPR, mAb^2 captured by anti-human Fab, antigen in flow"}, "[8]": {"biological_target": "T1, human PD-L1, cell-surface", "assay": "flow cytometry on activated primary human CD8+ T cells (carry PD-L1 and CD137); activated primary human CD8+ T cells (carry PD-L1 and little CD137)", "description": "CD137 is rapidly expressed to high levels on activated CD8⁺ T cells and also on activated CD4⁺ T cells with lower levels (Xue-Zhong Yu et al, 2013), therefore Pan T cells were stimulated for 24 hours using Dynabeads™ Human T-Activator CD3/CD28 beads (Thermo, 11132D) according to manufacturer's instructions.\nDead cells were excluded and the fluorescence in the APC channel (638 nm 660/20) was measured to show test antibody binding. The geometric Mean Fluorescence Intensity (GMFI) values were plotted vs the log concentration of antibody and the resulting curves were fitted using the log (agonist) vs response equation in GraphPad Prism."}}, "data": [{"binder": "FS22-172-003-AA/E12v2 (bispecific antibody, human IgG1, kappa, L234A L235A, PD-L1 site in the Fab, CD137 site in the CH3, LALA; also called anti-human CD137/PD-L1 mAb^2) heavy: EVQLVQSGAEVKRPGASVKVSCKASGYPFTSYGISWVRQAPGQGLEWMGWISAYSGGTNYAQKLQGRVTMTTDTSTSTAYMELRSLRSDDTAVYYCARDLFPTIFGVSYYYYWGQGTLVTVSSASTKGPSVFPLAPSSKSTSGGTAALGCLVKDYFPEPVTVSWNSGALTSGVHTFPAVLQSSGLYSLSSVVTVPSSSLGTQTYICNVNHKPSNTKVDKKVEPKSCDKTHTCPPCPAPEAAGGPSVFLFPPKPKDTLMISRTPEVTCVVVDVSHEDPEVKFNWYVDGVEVHNAKTKPREEQYNSTYRVVSVLTVLHQDWLNGKEYKCKVSNKALPAPIEKTISKAKGQPREPQVYTLPPSRDELPYIIPPYNQVSLTCLVKGFYPSDIAVEWESNGQPENNYKTTPPVLDSDGSFFLYSKLTVGADRWLEGNVFSCSVMHEALHNHYTQKSLSLSPG light: DIQMTQSPSTLSASVRDRVIITCRASQSIGNRLAWYQHKPGKAPKLLIYEASTSETGVPSRFSGSGSGTDFTLTISSLQPEDFATYYCQQSYSTPYTFGQGTKLEIKRTVAAPSVFIFPPSDEQLKSGTASVVCLLNNFYPREAKVQWKVDNALQSGNSQESVTEQDSKDSTYSLSSTLTLSKADYEKHKVYACEVTHQGLSSPVTKSFNRGEC", "values": [{"measurement": "EC50 (nM), IFN-γ release, human MLR", "setting": "[1]", "value": 0.02, "unit": "nM"}, {"measurement": "Emax (pg/ml), IFN-γ release, human MLR", "setting": "[1]", "value": 2630, "unit": "pg/mL"}, {"measurement": "EC50 (nM) (crosslinked), mIL-2 release, DO11.10.cCD137 with HEK.cyPD-L1", "setting": "[2]", "value": 0.06, "unit": "nM"}, {"measurement": "Emax (pg/ml) (crosslinked), mIL-2 release, DO11.10.cCD137 with HEK.cyPD-L1", "setting": "[2]", "value": 11300, "unit": "pg/mL"}, {"measurement": "EC50", "setting": "[3]", "value": 3.7, "unit": "nM"}, {"measurement": "Kd", "setting": "[4]", "value": 0.19, "unit": "nM"}, {"measurement": "Kd", "setting": "[5]", "value": 0.36, "unit": "nM"}, {"measurement": "Kd", "setting": "[6]", "value": 0.7, "unit": "nM"}, {"measurement": "Kd", "setting": "[7]", "value": 0.8, "unit": "nM"}, {"measurement": "EC50", "setting": "[8]", "value": 0.9, "unit": "nM"}]}]}
